Experimental data reported in patent publication US12492490 (University of California, dated 2025).

Target: T1, human ephrin type-A receptor 2 (EphA2) (human, UniProt P29317 24-976)
T1 construct: whole, on cells; also called NP_004422
Experiment: not described

T1 sequence (P29317 24-976): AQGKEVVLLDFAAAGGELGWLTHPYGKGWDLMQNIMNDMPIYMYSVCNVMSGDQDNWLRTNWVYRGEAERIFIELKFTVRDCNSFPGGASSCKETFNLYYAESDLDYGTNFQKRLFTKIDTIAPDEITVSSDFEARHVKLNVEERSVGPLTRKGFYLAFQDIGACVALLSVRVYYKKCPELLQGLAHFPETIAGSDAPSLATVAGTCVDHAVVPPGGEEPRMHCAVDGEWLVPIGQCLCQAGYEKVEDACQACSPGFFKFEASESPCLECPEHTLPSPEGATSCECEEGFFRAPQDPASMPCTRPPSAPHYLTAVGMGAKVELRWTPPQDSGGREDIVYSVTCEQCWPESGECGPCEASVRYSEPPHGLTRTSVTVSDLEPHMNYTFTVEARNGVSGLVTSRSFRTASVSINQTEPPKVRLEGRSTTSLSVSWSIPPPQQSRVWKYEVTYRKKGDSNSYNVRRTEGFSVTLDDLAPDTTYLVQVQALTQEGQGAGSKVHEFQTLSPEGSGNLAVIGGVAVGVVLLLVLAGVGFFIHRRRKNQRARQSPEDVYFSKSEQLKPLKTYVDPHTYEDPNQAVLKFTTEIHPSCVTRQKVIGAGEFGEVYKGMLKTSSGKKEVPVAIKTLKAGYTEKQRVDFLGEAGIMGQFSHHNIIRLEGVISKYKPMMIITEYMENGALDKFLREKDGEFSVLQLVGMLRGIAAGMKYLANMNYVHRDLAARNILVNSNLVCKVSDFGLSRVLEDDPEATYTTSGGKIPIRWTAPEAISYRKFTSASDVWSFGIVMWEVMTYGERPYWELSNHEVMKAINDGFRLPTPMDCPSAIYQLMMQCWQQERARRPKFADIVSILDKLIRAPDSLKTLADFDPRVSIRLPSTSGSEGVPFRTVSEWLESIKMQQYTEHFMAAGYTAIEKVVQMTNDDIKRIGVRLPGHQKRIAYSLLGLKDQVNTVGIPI

Binder | binding result
HCA-S1 (antibody, V domains shown, also called IgG HCA-S1) VH: QVQLQESGGGLVQPGGSLRLSCAASGFTFSSYAMHWVRQAPGKGLEWVAVISYDGSNKYYADSVKGRFTISRDNSKNTLYLQMNSLRAEDTAVYYCARFSSGWYYFDYWGQGTLVTVSS VL: DIQMTQSPSFLSASVGDRITITCRASHDISSYFAWYQQKPGKAPKPLIYAASTLQSGVPSRFSGSGSGTEFTLTISSLQPEDFATYYCQQLGSYPLTFGGGTKLEIK | no binding
HCA-M1 (antibody, V domains shown, also called IgG HCA-M1) VH: QVQLVESGGGVVQPGRSLRLSCAASGFTFSSYAMHWVRQAPGKGLEWVAVISYDGSNKYYADSVKGRFTISRDNSKNTLYLQMNSLRAEDTAVYYCARAPAYSYGPFDYWGQGTLVTVSS VL: SSELTQDPAVSVALGQTVRITCQGDSLRSYYASWYQQKPGQAPVLVIYGKNNRPSGIPDRFSGSSSGNTASLTITGAQAEDEADYYCHSRDSSGTHLRVFGGGTKVTVL | no binding
